Laboratory results: patent publication US20230212549A1 (3B PHARMACEUTICALS, published 2023)
“And” between values parts separate entries of the source, which are not always exact repeats. Equal values may be shown once. Numbered stars: 1 amine (or outer) side, 2 acyl side, 3 side chain; on linkers, the order of the positions; unused ones are H or OH. Bridge positions count the residues as written; N and C are the ends. Square brackets hold non-standard residues; d marks the D form. Primed or numbered codes have the meaning given here. * marks the point of attachment. Ttds″ = 1,13-diamino-4,7,10-trioxatridecan-succinamic acid spacer, O=C(CCC(=O)[*:2])NCCCOCCOCCOCCCN[*:1]; Ttds(6) = 1,13-Diamino-4,7,10-trioxatridecan-succinamic acid, O=C(CCC(=O)[*:2])NCCCOCCOCCOCCCN[*:1]; Ttds = 1,13-diamino-4,7,10-trioxatridecan-succinamic acid, O=C(CCC(=O)[*:2])NCCCOCCOCCOCCCN[*:1]; 3MeBn = 3-Methylbenzylidene (m-xylylene thioether bridge from α,α′-dibromo-m-xylene); N4Ac = 6-Carboxy-1,4,8,11-tetraazaundecane, an N4-chelator, NCCNCC(CNCCN)C(=O)*; DOTA = O=C(O)CN1CCN(CC(=O)O)CCN(CC(=O)*)CCN(CC(=O)O)CC1; γGlu = O=C(O)[C@H](CCC(=O)[*:2])N[*:1]; 1Nal = N[C@@H](Cc1cccc2ccccc12)C(=O)O; mXylylene = c1cc(C[*:1])cc(C[*:2])c1; Nle = CCCC[C@H](N)C(=O)O; Octanoyl = CCCCCCCC(=O)*; Hexanoyl = CCCCCC(=O)*

Assays:
[1] = molecular target: Recombinant human FAP (R&D systems, #3715-SE) (human, UniProt Q12884 26-760); assay: cell-based or functional assay
[2] = molecular target: T1, fibroblast activation protein (FAP) on FAP-expressing human WI-38 fibroblasts (human, UniProt Q12884 1-760); assay: competitive FACS, WI-38 cells, vs Cy5 tracer m3; B = pIC50 7.1-8.0
T1 construct: also called human FAP

[3] = molecular target: Recombinant human FAP (R&D systems, #3715-SE) (human, UniProt Q12884 26-760); assay: cell-based or functional assay; remark: listed apart in the source

Binder | pIC50 Category (Activity) [1] | pIC50 Category (FACS) [2] | pIC50 Category (Activity) [3] [pIC50]
Hexanoyl-CPPTE[1Nal]C-NH2 (linker 1-7 via mXylylene; SMILES CCCCCC(=O)N[C@H]1CSCc2cccc(c2)CSC[C@@H](C(N)=O)NC(=O)[C@H](Cc2cccc3ccccc23)NC(=O)[C@H](CCC(=O)O)NC(=O)[C@H]([C@@H](C)O)NC(=O)[C@@H]2CCCN2C(=O)[C@@H]2CCCN2C1=O, also called 3BP-3361) [Hex-[Cys(3MeBn)-Pro-Pro-Thr-Glu-1Ni-Cys]-NH2] | 7.1 pIC50 and 8 pIC50 | 7.1 pIC50 and 8 pIC50 | –
{DOTA}-[Ttds″]ECPPTEFCDHFRD-NH2 (linker 3-9 via mXylylene; SMILES C[C@@H](O)[C@@H]1NC(=O)[C@@H]2CCCN2C(=O)[C@@H]2CCCN2C(=O)[C@@H](NC(=O)[C@H](CCC(=O)O)NC(=O)CCC(=O)NCCCOCCOCCOCCCNC(=O)CN2CCN(CC(=O)O)CCN(CC(=O)O)CCN(CC(=O)O)CC2)CSCc2cccc(c2)CSC[C@@H](C(=O)N[C@@H](CC(=O)O)C(=O)N[C@@H](Cc2c[nH]cn2)C(=O)N[C@@H](Cc2ccccc2)C(=O)N[C@@H](CCCNC(=N)N)C(=O)N[C@@H](CC(=O)O)C(N)=O)NC(=O)[C@H](Cc2ccccc2)NC(=O)[C@H](CCC(=O)O)NC1=O, also called 3BP-3173) [DOTA-Ttds-Glu-[Cys(3MeBn)-Pro-Pro-Thr-Glu-Phe-Cys]-Asp-His-Phe-Arg-Asp-NH2] | 7.1 pIC50 and 8 pIC50 | 7.1 pIC50 and 8 pIC50 | –
{DOTA}-[Ttds]FCPPTEFCDHFRD-NH2 (linker 3-9 via mXylylene; SMILES C[C@@H](O)[C@@H]1NC(=O)[C@@H]2CCCN2C(=O)[C@@H]2CCCN2C(=O)[C@@H](NC(=O)[C@H](Cc2ccccc2)NC(=O)CCC(=O)NCCCOCCOCCOCCCNC(=O)CN2CCN(CC(=O)O)CCN(CC(=O)O)CCN(CC(=O)O)CC2)CSCc2cccc(c2)CSC[C@@H](C(=O)N[C@@H](CC(=O)O)C(=O)N[C@@H](Cc2c[nH]cn2)C(=O)N[C@@H](Cc2ccccc2)C(=O)N[C@@H](CCCNC(=N)N)C(=O)N[C@@H](CC(=O)O)C(N)=O)NC(=O)[C@H](Cc2ccccc2)NC(=O)[C@H](CCC(=O)O)NC1=O, also called 3BP-3171) [DOTA-Ttds-Phe-[Cys(3MeBn)-Pro-Pro-Thr-Glu-Phe-Cys]-Asp-His-Phe-Arg-Asp-NH2] | 7.1 pIC50 and 8 pIC50 | 7.1 pIC50 and 8 pIC50 | –
Octanoyl-CPPTQFCD-NH2 (linker 1-7 via mXylylene; SMILES CCCCCCCC(=O)N[C@H]1CSCc2cccc(c2)CSC[C@@H](C(=O)N[C@@H](CC(=O)O)C(N)=O)NC(=O)[C@H](Cc2ccccc2)NC(=O)[C@H](CCC(N)=O)NC(=O)[C@H]([C@@H](C)O)NC(=O)[C@@H]2CCCN2C(=O)[C@@H]2CCCN2C1=O, also called 3BP-3417) [Oct-[Cys(3MeBn)-Pro-Pro-Thr-Gln-Phe-Cys]-Asp-NH2] | 7.1 pIC50 and 8 pIC50 | 7.1 pIC50 and 8 pIC50 | –
Hexanoyl-CPPTQWC-NH2 (linker 1-7 via mXylylene; SMILES CCCCCC(=O)N[C@H]1CSCc2cccc(c2)CSC[C@@H](C(N)=O)NC(=O)[C@H](Cc2c[nH]c3ccccc23)NC(=O)[C@H](CCC(N)=O)NC(=O)[C@H]([C@@H](C)O)NC(=O)[C@@H]2CCCN2C(=O)[C@@H]2CCCN2C1=O, also called 3BP-3408) [Hex-[Cys(3MeBn)-Pro-Pro-Thr-Gln-Trp-Cys]-NH2] | 7.1 pIC50 and 8 pIC50 | 7.1 pIC50 and 8 pIC50 | –
Hexanoyl-CPPTEFC-OH (linker 1-7 via mXylylene; SMILES CCCCCC(=O)N[C@H]1CSCc2cccc(c2)CSC[C@@H](C(=O)O)NC(=O)[C@H](Cc2ccccc2)NC(=O)[C@H](CCC(=O)O)NC(=O)[C@H]([C@@H](C)O)NC(=O)[C@@H]2CCCN2C(=O)[C@@H]2CCCN2C1=O, also called 3BP-3370) [Hex-[Cys(3MeBn)-Pro-Pro-Thr-Glu-Phe-Cys]-OH] | 7.1 pIC50 and 8 pIC50 | 7.1 pIC50 and 8 pIC50 | –

Continued, values first:

pIC50 Category (Activity) [1] | pIC50 Category (FACS) [2] | pIC50 Category (Activity) [3] [pIC50] | Binder
– | – | ≤ 6 | N4Ac-[γGlu][Nle]CPPTEFC-OH (linker 3-9 via mXylylene; SMILES CCCC[C@H](NC(=O)CC[C@H](NC(=O)C(CNCCN)CNCCN)C(=O)O)C(=O)N[C@H]1CSCc2cccc(c2)CSC[C@@H](C(=O)O)NC(=O)[C@H](Cc2ccccc2)NC(=O)[C@H](CCC(=O)O)NC(=O)[C@H]([C@@H](C)O)NC(=O)[C@@H]2CCCN2C(=O)[C@@H]2CCCN2C1=O) [N4Ac-gGlu-Nle-[Cys-(3MeBn)-Pro-Pro-Thr-Glu-Phe-Cys]-OH]
– | – | ≤ 6 | N4Ac-[Ttds(6)]E[Nle]CPPTEFC-OH (linker 4-10 via 3MeBn; not fully specified (residue 2); printed as N4Ac-Ttds-Glu(AGLU′)-Nle-[Cys-(3MeBn)-Pro-Pro-Thr-Glu-Phe-Cys]-OH) [N4Ac-Ttds-Glu(AGLU′)-Nle-[Cys-(3MeBn)-Pro-Pro-Thr-Glu-Phe-Cys]-OH]
7.1 pIC50 and 8 pIC50 | 7.1 pIC50 and 8 pIC50 | – | MCPPTQFC (N-term acetyl; D-Met1; Cys2/Cys8 thioether-bridged by tMeBn carrying DOTA-AET; C-term free acid, also called 3BP-3682) [Ac-met-[Cys(tMeBn(DOTA-AET))-Pro-Pro-Thr-Gln-Phe-Cys]-OH]
7.1 pIC50 and 8 pIC50 | 7.1 pIC50 and 8 pIC50 | – | Ac-MCP[dP]TEFCDHFRD-NH2 (linker 2-8 via mXylylene; SMILES CSCC[C@H](NC(C)=O)C(=O)N[C@H]1CSCc2cccc(c2)CSC[C@@H](C(=O)N[C@@H](CC(=O)O)C(=O)N[C@@H](Cc2c[nH]cn2)C(=O)N[C@@H](Cc2ccccc2)C(=O)N[C@@H](CCCNC(=N)N)C(=O)N[C@@H](CC(=O)O)C(N)=O)NC(=O)[C@H](Cc2ccccc2)NC(=O)[C@H](CCC(=O)O)NC(=O)[C@H]([C@@H](C)O)NC(=O)[C@H]2CCCN2C(=O)[C@@H]2CCCN2C1=O, also called 3BP-3177) [Ac-Met-[Cys(3MeBn)-Pro-pro-Thr-Glu-Phe-Cys]-Asp-His-Phe-Arg-Asp-NH2]
